US20230136228A1 (LAMKAP BIO ALPHA, published 2023)

Legend:
[1] = target: T1, human CEACAM1 (human, UniProt P13688 35-526); assay: flow cytometry, transfected PEAK cells
T1 construct: whole, on cells
T1 sequence (looked up): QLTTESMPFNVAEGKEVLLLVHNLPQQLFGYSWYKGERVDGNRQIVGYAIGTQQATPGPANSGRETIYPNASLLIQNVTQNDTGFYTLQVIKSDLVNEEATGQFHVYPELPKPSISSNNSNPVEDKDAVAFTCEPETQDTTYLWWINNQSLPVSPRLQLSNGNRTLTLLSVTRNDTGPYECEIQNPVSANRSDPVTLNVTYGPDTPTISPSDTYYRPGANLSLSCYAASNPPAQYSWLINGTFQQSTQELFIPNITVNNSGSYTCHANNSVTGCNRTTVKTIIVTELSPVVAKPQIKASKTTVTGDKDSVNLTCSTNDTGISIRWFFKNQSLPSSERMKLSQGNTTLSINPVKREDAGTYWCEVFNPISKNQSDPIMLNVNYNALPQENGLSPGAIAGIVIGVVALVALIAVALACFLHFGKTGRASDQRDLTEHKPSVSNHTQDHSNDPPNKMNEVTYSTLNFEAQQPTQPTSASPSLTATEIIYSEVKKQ
Text: (§1) Vectors encoding the full-length version of human CEACAM 1, 3, 4, 5, 6, 7, 8, 18, 19, 20 and […] are used to express these proteins at the surface of PEAK and/or CHO cells as described in Example 1. Similarly, vectors encoding the full-length version of cyno CEACAM 5 and 6 are also used to express these proteins at the surface of PEAK and/or CHO cells. Non-transfected PEAK and/or CHO cells are used as negative control. Cells are harvested, counted, checked for viability and resuspended at 3×10⁶ cells/ml in FACS buffer (PBS 2% BSA, 0.1% NaN₃). 100 μl of the cell suspension are distributed in V-bottom 96-well plates (3×10⁵ cells/well). The supernatant is removed by centrifugation 3 minutes at 4° C., 1300 rpm and the cells incubated for 15 minutes at 4° C. with increasing concentrations of the antibody according to the invention. The antibodies carrying the anti-CEACAM5 arms to test are diluted in FACS buffer and the concentration range is 30 pM-500 nM. Cells are washed twice with cold FACS buffer and re-incubated for further 15 minutes at 4° C. with a compatible anti-human IgG secondary antibody. Cells are washed twice with cold FACS buffer and resuspended in 300 μl FACS buffer with 1:1500-diluted TOPRO-3 (Invitrogen). Fluorescence is measured using a FACSCalibur™ (BD Biosciences) or a Cytoflex Platform (Beckman Coulter). Dose-response binding curves are fitted using GraphPad Prism8 software. In the same manner, CEACAM1, CEACAM6 and other CEACAMs can be characterized.
(§2) For the bispecific antibodies AB17L3-1/N, AB71L3-1/N, AB72L3-1/N, AB73L3-1/N the MFI measured for binding to CEACAM5 transfected cells was found between 29000 and 41000 (Table 2). In contrast MFI found by using PEAK cells transfected with CEACAM 1,3,4,6,8 were found below 1000 with the only exception of a strong signal for AB72L3-1/N on CEACAM8 transfected cells. When MFI values obtained on transfected cells expressing any given CEACAM are divided by the values obtained on WT PEAK cells, “factors to PEAK WT” can be calculated (Table 3).

[2] = target: T2, human CEACAM3 (human, UniProt P40198 35-252); assay: flow cytometry, transfected PEAK cells
T2 construct: whole, on cells
T2 sequence (looked up): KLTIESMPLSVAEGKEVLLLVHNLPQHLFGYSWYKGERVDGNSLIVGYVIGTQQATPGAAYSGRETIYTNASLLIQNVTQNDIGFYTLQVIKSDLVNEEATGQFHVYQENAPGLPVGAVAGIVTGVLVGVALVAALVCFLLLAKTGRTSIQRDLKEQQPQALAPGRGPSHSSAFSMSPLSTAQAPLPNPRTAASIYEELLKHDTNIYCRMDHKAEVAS
Text: as §1, §2

[3] = target: T3, human CEACAM5 (carcinoembryonic antigen, CEA), cell surface (human, UniProt P06731 35-685); assay: flow cytometry, CEA positive cells
T3 construct: whole, on cells; also called CD66e
T3 sequence (looked up): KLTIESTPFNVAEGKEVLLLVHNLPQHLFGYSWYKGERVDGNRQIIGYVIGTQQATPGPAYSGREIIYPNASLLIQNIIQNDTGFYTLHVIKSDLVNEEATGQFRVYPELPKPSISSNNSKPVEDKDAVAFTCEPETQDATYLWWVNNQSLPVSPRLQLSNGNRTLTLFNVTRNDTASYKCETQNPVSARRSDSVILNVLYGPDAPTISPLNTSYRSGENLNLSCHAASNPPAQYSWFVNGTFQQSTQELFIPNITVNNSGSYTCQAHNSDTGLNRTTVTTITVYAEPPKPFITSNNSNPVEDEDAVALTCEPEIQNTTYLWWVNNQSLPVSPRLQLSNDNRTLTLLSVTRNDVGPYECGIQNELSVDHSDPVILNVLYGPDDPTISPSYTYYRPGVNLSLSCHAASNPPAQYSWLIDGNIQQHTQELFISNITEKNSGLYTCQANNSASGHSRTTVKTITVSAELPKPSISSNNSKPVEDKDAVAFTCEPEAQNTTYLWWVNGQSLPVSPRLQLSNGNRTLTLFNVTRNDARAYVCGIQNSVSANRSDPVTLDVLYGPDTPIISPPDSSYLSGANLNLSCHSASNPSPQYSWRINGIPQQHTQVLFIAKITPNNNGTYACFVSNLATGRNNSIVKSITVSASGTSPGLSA

B1: AB17L3-1/N (bispecific antibody, human IgG1, kappa, lambda, L234A L235A)
heavy: EVQLVESGGGLVQPGGSLKLSCAASGFTFNTYAMNWVRQAPGKGLEWVGRIRSKYNNYATYYADSVKDRFTISRDDSKNTAYLQMNSLKTEDTAVYYCVRHGNFGNSYVSWFAYWGQGTLVTVSSASTKGPSVFPLAPSSKSTSGGTAALGCLVKDYFPEPVTVSWNSGALTSGVHTFPAVLQSSGLYSLSSVVTVPSSSLGTQTYICNVNHKPSNTKVDKRVEPKSCDKTHTCPPCPAPEAAGGPSVFLFPPKPKDTLMISRTPEVTCVVVDVSHEDPEVKFNWYVDGVEVHNAKTKPREEQYNSTYRVVSVLTVLHQDWLNGKEYKCKVSNKALAAPIEKTISKAKGQPREPQVYTLPPSREEMTKNQVSLTCLVKGFYPSDIAVEWESNGQPENNYKTTPPVLDSDGSFFLYSKLTVDKSRWQQGNVFSCSVMHEALHNHYTQKSLSLSPG
light 1: EIVLTQSPATLSLSPGERATLSCRASQSVNSNLNWYQQKPGQAPRLLIYHGSNRATGIPARFSGSGSGTDFTLTISSLEPEDFAVYYCQQFDYFKEHNTFGQGTKVEIKRTVAAPSVFIFPPSDEQLKSGTASVVCLLNNFYPREAKVQWKVDNALQSGNSQESVTEQDSKDSTYSLSSTLTLSKADYEKHKVYACEVTHQGLSSPVTKSFNRGEC
light 2: QTVVTQEPSLTVSPGGTVTLTCRSSTGAVTTSNYANWFQQKPGQAPRGLIGGTNKRAPGTPARFSGSLLGGKAALTLSGAQPEDEAEYYCALWYKQRWVFGGGTKLTVLGQPKAAPSVTLFPPSSEELQANKATLVCLISDFYPGAVTVAWKADSSPVKAGVETTTPSKQSNNKYAASSYLSLTPEQWKSHRSYSCQVTHEGSTVEKTVAPTECS
notes: Kappa-lambda body, lead optimization wave 1
binding result [1]: no binding (tested: 10 mcg/ml)
binding result [2]: no binding (tested: 10 mcg/ml)

B2: AB1L3-1/N (bispecific antibody, human IgG1, kappa, lambda, L234A L235A)
heavy: EVQLVESGGGLVQPGGSLKLSCAASGFTFNTYAMNWVRQAPGKGLEWVGRIRSKYNNYATYYADSVKDRFTISRDDSKNTAYLQMNSLKTEDTAVYYCVRHGNFGNSYVSWFAYWGQGTLVTVSSASTKGPSVFPLAPSSKSTSGGTAALGCLVKDYFPEPVTVSWNSGALTSGVHTFPAVLQSSGLYSLSSVVTVPSSSLGTQTYICNVNHKPSNTKVDKRVEPKSCDKTHTCPPCPAPEAAGGPSVFLFPPKPKDTLMISRTPEVTCVVVDVSHEDPEVKFNWYVDGVEVHNAKTKPREEQYNSTYRVVSVLTVLHQDWLNGKEYKCKVSNKALAAPIEKTISKAKGQPREPQVYTLPPSREEMTKNQVSLTCLVKGFYPSDIAVEWESNGQPENNYKTTPPVLDSDGSFFLYSKLTVDKSRWQQGNVFSCSVMHEALHNHYTQKSLSLSPG
light 1: EIVLTQSPATLSLSPGERATLSCRASQSVNSNLNWYQQKPGQAPRLLIYHGSNRATGIPARFSGSGSGTDFTLTISSLEPEDFAVYYCQQFDLRHEHNTFGQGTKVEIKRTVAAPSVFIFPPSDEQLKSGTASVVCLLNNFYPREAKVQWKVDNALQSGNSQESVTEQDSKDSTYSLSSTLTLSKADYEKHKVYACEVTHQGLSSPVTKSFNRGEC
light 2: QTVVTQEPSLTVSPGGTVTLTCRSSTGAVTTSNYANWFQQKPGQAPRGLIGGTNKRAPGTPARFSGSLLGGKAALTLSGAQPEDEAEYYCALWYKQRWVFGGGTKLTVLGQPKAAPSVTLFPPSSEELQANKATLVCLISDFYPGAVTVAWKADSSPVKAGVETTTPSKQSNNKYAASSYLSLTPEQWKSHRSYSCQVTHEGSTVEKTVAPTECS
notes: Kappa-lambda body: common heavy chain (hIgG1 L234A+L235A+P329A), kappa CEA light chain AB1, lambda CD3 light chain L3-1 (1A4); also called parental KL bispecific antibody
binding result [1]: no binding (tested: 10 mcg/ml)
binding result [2]: no binding (tested: 10 mcg/ml)

B3: AB73L3-1/N (bispecific antibody, human IgG1, kappa, lambda, L234A L235A)
heavy: EVQLVESGGGLVQPGGSLKLSCAASGFTFNTYAMNWVRQAPGKGLEWVGRIRSKYNNYATYYADSVKDRFTISRDDSKNTAYLQMNSLKTEDTAVYYCVRHGNFGNSYVSWFAYWGQGTLVTVSSASTKGPSVFPLAPSSKSTSGGTAALGCLVKDYFPEPVTVSWNSGALTSGVHTFPAVLQSSGLYSLSSVVTVPSSSLGTQTYICNVNHKPSNTKVDKRVEPKSCDKTHTCPPCPAPEAAGGPSVFLFPPKPKDTLMISRTPEVTCVVVDVSHEDPEVKFNWYVDGVEVHNAKTKPREEQYNSTYRVVSVLTVLHQDWLNGKEYKCKVSNKALAAPIEKTISKAKGQPREPQVYTLPPSREEMTKNQVSLTCLVKGFYPSDIAVEWESNGQPENNYKTTPPVLDSDGSFFLYSKLTVDKSRWQQGNVFSCSVMHEALHNHYTQKSLSLSPG
light 1: EIVLTQSPATLSLSPGERATLSCRASQSVNSNLNWYQQKPGQAPRLLIYHSNNRPHGIPARFSGSGSGTDFTLTISSLEPEDFAVYYCQQFDYFREYNTFGQGTKVEIKRTVAAPSVFIFPPSDEQLKSGTASVVCLLNNFYPREAKVQWKVDNALQSGNSQESVTEQDSKDSTYSLSSTLTLSKADYEKHKVYACEVTHQGLSSPVTKSFNRGEC
light 2: QTVVTQEPSLTVSPGGTVTLTCRSSTGAVTTSNYANWFQQKPGQAPRGLIGGTNKRAPGTPARFSGSLLGGKAALTLSGAQPEDEAEYYCALWYKQRWVFGGGTKLTVLGQPKAAPSVTLFPPSSEELQANKATLVCLISDFYPGAVTVAWKADSSPVKAGVETTTPSKQSNNKYAASSYLSLTPEQWKSHRSYSCQVTHEGSTVEKTVAPTECS
notes: Kappa-lambda body, lead optimization wave 2
binding higher than TCB2014 (at 200 nM) [3]: ≥ 40%

B4: AB71L3-1/N (bispecific antibody, human IgG1, kappa, lambda, L234A L235A)
heavy: EVQLVESGGGLVQPGGSLKLSCAASGFTFNTYAMNWVRQAPGKGLEWVGRIRSKYNNYATYYADSVKDRFTISRDDSKNTAYLQMNSLKTEDTAVYYCVRHGNFGNSYVSWFAYWGQGTLVTVSSASTKGPSVFPLAPSSKSTSGGTAALGCLVKDYFPEPVTVSWNSGALTSGVHTFPAVLQSSGLYSLSSVVTVPSSSLGTQTYICNVNHKPSNTKVDKRVEPKSCDKTHTCPPCPAPEAAGGPSVFLFPPKPKDTLMISRTPEVTCVVVDVSHEDPEVKFNWYVDGVEVHNAKTKPREEQYNSTYRVVSVLTVLHQDWLNGKEYKCKVSNKALAAPIEKTISKAKGQPREPQVYTLPPSREEMTKNQVSLTCLVKGFYPSDIAVEWESNGQPENNYKTTPPVLDSDGSFFLYSKLTVDKSRWQQGNVFSCSVMHEALHNHYTQKSLSLSPG
light 1: EIVLTQSPATLSLSPGERATLSCRASQSVNSNLNWYQQKPGQAPRLLIYHSSNRPHGIPARFSGSGSGTDFTLTISSLEPEDFAVYYCQQFDYFKEHNTFGQGTKVEIKRTVAAPSVFIFPPSDEQLKSGTASVVCLLNNFYPREAKVQWKVDNALQSGNSQESVTEQDSKDSTYSLSSTLTLSKADYEKHKVYACEVTHQGLSSPVTKSFNRGEC
light 2: QTVVTQEPSLTVSPGGTVTLTCRSSTGAVTTSNYANWFQQKPGQAPRGLIGGTNKRAPGTPARFSGSLLGGKAALTLSGAQPEDEAEYYCALWYKQRWVFGGGTKLTVLGQPKAAPSVTLFPPSSEELQANKATLVCLISDFYPGAVTVAWKADSSPVKAGVETTTPSKQSNNKYAASSYLSLTPEQWKSHRSYSCQVTHEGSTVEKTVAPTECS
notes: as for B3
binding higher than TCB2014 (at 200 nM) [3]: ≥ 40%
